# Laboratory results taken from patent publication US9271932B2, “Fusogenic properties of saposin C and related proteins and peptides for application to transmembrane drug delivery systems” (CHILDREN'S HOSPITAL MEDICAL CENTER, priority 2006, dated 2016).
# T1: acid β-glucosidase (Homo sapiens, UniProt P04062)
# T1 sequence (P04062 40-536): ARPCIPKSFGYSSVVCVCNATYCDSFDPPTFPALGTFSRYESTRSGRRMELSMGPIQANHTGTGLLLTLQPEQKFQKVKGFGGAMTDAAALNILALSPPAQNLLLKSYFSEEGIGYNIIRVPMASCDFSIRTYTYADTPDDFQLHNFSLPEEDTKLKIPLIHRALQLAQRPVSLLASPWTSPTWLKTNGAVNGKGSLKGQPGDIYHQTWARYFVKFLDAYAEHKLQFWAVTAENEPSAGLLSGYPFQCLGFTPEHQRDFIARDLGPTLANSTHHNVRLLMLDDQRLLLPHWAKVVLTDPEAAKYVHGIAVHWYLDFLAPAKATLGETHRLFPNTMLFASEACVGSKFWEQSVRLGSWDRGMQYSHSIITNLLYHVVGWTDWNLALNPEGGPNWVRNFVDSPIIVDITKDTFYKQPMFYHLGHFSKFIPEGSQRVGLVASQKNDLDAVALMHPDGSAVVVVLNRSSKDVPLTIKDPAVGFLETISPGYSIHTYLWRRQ
# How the values were obtained:
# [1] = system: cultured mouse cortical and hippocampal neurons; assay: Transport of saposin C into cultured neurons by DOPS liposomes; format: cell-based; conditions: facilitated by complexes with DOPS liposomes
# Description: Saposin C can be transported into endosomal and lysosomal compartments using saposin-C liposomes containing long-chain anionic phospholipids. This method can be used for the treatment of neurological diseases including, for example, those in which MVB accumulation contributes to pathology and progression of disease.
# Primary Cortical Neuron Cultures—Cortical neurons are cultured in serum-free Neuroblasal medium with B27 supplements as described by Whitmarsh et al.^44 Take out E16 mouse embryos, cut the head and place them into ice-cold Ca/Mg-free Hank Balance Salt Solution (HBSS) with papain (1 mg/ml). The brain is dissected out and place scalpel along the dorsal midline between the two cerebral hemispheres but slightly deviate towards to the side as it cut. This will give a clean cerebral cortex. […]
# Immunofluorescence staining is done as described with minor modification.^15 Cultured cells (1×10^5) in a dish with coverslips are washed with PBS and fixed with 2% paraformaldehyde for 10 min at room temperature. After treating with 0.1% Triton X-100 in PBS, the samples are incubated with each respective primary antiserum (for 2 h) and fluorescence-conjugated secondary antibody (for 1 h) at 37° C. […] Antifade is added on the section to prevent the fluorescence quenching. Fluorescence signals are detected by a confocal microscopy (LSM510, Zeiss) or a fluorescence microscopy (Zeiss Axioskop).
# [2] = Saposin C-PS(18:1,1) liposome complex: stability and mechanism of fusion; format: biochemical
# Description: Protein conformational changes are thought to play a role in protein-mediated membrane fusion. This fusion mechanism is evaluated using saposin C-dependent membrane fusion. First, saposin C—PS(18:1,1) liposome complexes are formed. In this saposin C-anchored membrane, protein conformation is altered. This complex is stable from pH 3 to 10, and in low concentrations of SDS solution.
# Since the Trp in saposin C(0W) is embedded inside of lipid bilayer, the change of its signal is indicative of that the surrounding environment of Trp has been changed. After about 20 to 30 ms, Trp fluorescence signal decreases to the starting level. […] Shortly after this, the signal drops back to starting level signaling on end of the fusion process. […] Therefore, a conformational change of saposin C upon lipid binding is […] for its fusogenic activity.
# [3] = Fluorescence stopped-flow of saposin C binding to PS vesicles; conditions: PS(18:1,1) or BPS vesicles
# Description: To investigate temporal and spatial interactions of saposins and liposomal membrane, fluorescence stopped-flow and quenching approaches are used with Trp as the intrinsic fluorescence probe of the saposins. These experiments allow identification of regional interactions between saposins and lipid bilayers, and also the kinetics of their binding.
# This binding induces change is lipid-concentration dependent and requires at least one unsaturated fatty acid chain. To evaluate the kinetics of this interaction, stopped-flow experiments are conducted the change in fluorescence during saposin C/liposome complex formation is monitored. When saposin C(0W) is mixed with PS(18:1,1) or BPS vesicles, fluorescence of Trp is increased, but the time course of this change is undetectable due to limitation of the machine's capability. Apparently, the interaction of saposin C and unsaturated PS containing membranes occurs within at least 10 ms.
# [4] = R18 dequenching stopped-flow liposomal fusion assay; format: biochemical; conditions: unsaturated PS(18:1,1) vesicles, compared with Ca^2+
# Description: Fluorescence probes have been widely used to determine membrane fusion, such as fluorescence dequenching, and fluorescence resonance energy transfer (FET), and can be used for quantitative and kinetics analyses. The dequenching approach is used to investigate saposin C's fusogenic activity. Octadecyl rhodamine B (R18) is selected as fluorescence probe and is entrapped in internal aqueous compartment of liposomal vesicles by co-sonication with BPS or PS(18:1,1).
# Fluorescence increase (dequenching) of R18 occurs upon R18 concentration decreases. After non-labeled and labeled vesicles fuse, the R18 concentration is diluted, resulting in an increase in intensity of fluorescence. R18-labeled vesicles (lipid:R18=96:4, mol:mol) are mixed with the same lipid vesicles without fluorescence probe. Stopped-flow assays are conducted to quickly mix these vesicles with saposin C or Ca^2+ ion. Time-trace curves are generated for kinetic analysis. […] Fusion occurs extensively when reaction temperature is above the phase Transition temperature (Tc) of phospholipids. The Tc of synthetic PS(18:1) is about −11° C., while the Tc of PS(18:0) is very high (68° C.). Thus, the lipid bilayer phase of PS(18:1,1) is different to that of BPS(18:0 and 18:1) at 24° C.
# [5] = Vesicle size change determination (N4 plus submicron particle sizer); format: biochemical
# Description: The amino acid residues 51-67 are necessary, but not sufficient, for its optimal enzymatic activation function. The disulfide structure and conformational alteration of saposin C upon lipid binding are also required for this activity. Three approaches are used for this study: (1) stopped-flow monitoring reduction of self-quenching resulting from fusion of fluorescence probe-containing vesicle with non-fluorescent vesicle induced by saposin C; (2) monitoring the lipid vesicle size changes upon addition of saposin C to vesicles, the size distribution as determined using N4 plus submicron particle sizer (Coulter Co.); (3) monitoring intrinsic fluorescence of Trp-saposin C change during liposomal fusion.
# […] is used for vesicle fusion analysis, since the size of fused vesicles is bigger than those of non-fused. N4 plus submicron particle size is used to estimate particle sizes in the range of 3 nm to 3 μm since most liposomes fit in this range. Sonication conditions with a cup sonicator give mono-dispersed BPS-liposomes with ˜200 nm in size. Upon addition of saposin C, these vesicles change to a larger size up to 2-3 μm. The size increase is related to vesicles fusion as shown by the above dequenching experiments.
# Saposin C promotes the size changes at ˜50 nM concentration. To define the regions responsible for this fusion property, peptides containing only 50% of the NH2-terminal or 50% of the COOH-terminal halves in saposin C are tested. Both peptides show fusion activity.
# acid β-glucosidase = biological target: T1, acid β-glucosidase; assay: Acid β-glucosidase activation in liposomal reconstitution system; format: biochemical
# Description: Functional saposins were overexpressed in BL21(DE3) cells using a pET 21a series vector. Following IPTG induction at 37° C. or 30° C., large amounts of saposins containing His-Tag were found in the soluble fraction of the disrupted cells. These were conveniently purified to electrophoretic homogeneity on nickel-loaded columns. Alternatively, saposins without His-Tag were generated by introducing a stop codon after protein coding region, and then purified using immuno-affinity columns with T7-taq monoclonal antibody. […] Circular dichroism spectra, light scattering, and ES-MS analyses were used to evaluate the physical properties of the purified saposins, such as aggregation status and molecular weight. Trp-saposins without His-Tag were also generated for necessary control experiments. The functional integrity of recombinant saposin C is determined using delipidated and homogenous acid β-glucosidase in a liposomal reconstitution system and in neuritogenic assays. Recombinant saposin B function is determined using a sulfatide binding assay.
molecule,measurement,setting,value
"Saposin C: Recombinant saposin C, prosaposin-derived fusogenic lysosomal protein, expressed in E. coli (His-tag) (protein, listed as Homo sapiens, His-tag) SDVYCEVCEFLVKEVTKLIDNNKTEKEILDAFDKMCSKLPKSLSEECQEVVDTYGSSILSILLEEVSPELVCSMLHLCSG",transport into neurons,[1],can be transported into the cultured mouse cortical and hippocampal neurons
same,fusogenic activity when bound to lipid membrane,[2],retains the fusogenic activity
same,time within which interaction with unsaturated PS containing membranes occurs,[3],≤ 10 ms
same,kinetics of induced membrane fusion,[4],same kinetics as those with Ca^2+
same,concentration promoting the size changes,[5]; BPS-liposomes,~50 nM
same,vesicle size after addition of saposin C,[5]; mono-dispersed BPS-liposomes of ~200 nm before addition,2-3 μm
same,vesicle size enlargement,"[5]; pH 4.7, over a 10 min period",enlarges vesicle size
same,vesicle size enlargement,"[5]; pH 7.4, over a 10 min period",not at pH 7.4
same,activation of acid β-glucosidase,acid β-glucosidase,excellent activation
"Saposin C(S37W): saposin C with a Trp at residue 37 (in the middle) (protein, UniProt P07602 311-390, looked up, variant S37W, Saposin-C) Saposin-C: SDVYCEVCEFLVKEVTKLIDNNKTEKEILDAFDKMCWKLPKSLSEECQEVVDTYGSSILSILLEEVSPELVCSMLHLCSG",effect of Trp substitutions on activation properties,acid β-glucosidase,no effect
"Saposin C + Phosphatidylserine (18:1, 1): saposin C complexed with acidic, unsaturated phosphatidylserine PS(18:1,1) liposomes (protein, UniProt P07602 311-390, looked up, Saposin-C complexed with phosphatidylserine liposomes, saposin C complexed with acidic, unsaturated phosphatidylserine PS(18:1,1) liposomes) Saposin-C: SDVYCEVCEFLVKEVTKLIDNNKTEKEILDAFDKMCSKLPKSLSEECQEVVDTYGSSILSILLEEVSPELVCSMLHLCSG",stability in low concentrations of SDS solution,[2],stable
